From patent US10280197B2, “Discovery of the first selective C5A receptor 2 (C5L2/C5AR2) ligands” (The Regents of the University of California, priority 2015, dated 2019)

Legend:
[1] = Estimated blood concentration after i.v. dose; type: in vivo; details: C57BL/6J, whole blood, intravenous; 3 mg/kg, assuming a blood volume of 2 mL for a 25 g mouse
Procedure: To further explore the selectivity of the ligands P32 was tested in a mouse model of C5a-induced neutrophil mobilization (FIG. 6). […] Assuming a mouse blood volume of 2 mL for a 25 g mouse, a concentration of 3 mg/kg would result in Cmax blood concentrations of ˜50 uM, a dose within the active range of this compound from our in vitro studies

[2] = target: T1, human C5a2 (Flp-In CHO-C5a2 membranes) (Homo sapiens, UniProt Q9P296); test: C5a2 receptor binding, scintillation proximity assay (125I-C5a displacement); details: concentrations up to 1 μM
T1 construct: expressed in transfected cells
Procedure: Membranes were prepared from Flp-In CHO-05a2 cells by a previously described method^46. Briefly, cells were washed with PBS, pH 7.4, and harvested into buffer (50 mM Tris-HCl, pH 7.4, 5 mM MgCl2, 1 mM CaCl2) before homogenizing with a Polytron homogenizer for 3 min on setting 22. Cells were centrifuged at 150×g for 5 min at 4° C. The supernatant was recovered and centrifuged at 22 000×g for 1 h at 4° C. Membrane pellets were then resuspended in 0.4 mL of ice-cold buffer (50 mM Tris-HCl, pH 7.4, 5 mM MgCl2, 1 mM CaCl2, containing 10% glycerol) with aliquots stored at −80° C. The protein concentration of the membrane preparation was determined by Bradford method^47.
C5a2 receptor binding studies were performed using a modification of a previously described scintillation proximity assay (SPA) method^48. Briefly, C5a2 SPA studies were performed in 96-well white isoplates with clear flat bottoms (Perkin Elmer, Waltham, Mass., USA). SPA beads (200 μg/well) were added, following the addition of various concentrations of competing ligands or buffer (6 pM to 500 μM) in a total volume of 80 μL of assay buffer (50 mM Tris-HCl, pH 7.4, 0.5% BSA, 5 mM MgCl2, 1 mM CaCl2). ^125I-C5a (˜20 pM) (specific activity, 2200 Ci mmol^−1) (Perkin Elmer) was added to C5a2 membrane preparations (˜2 μg/well). The final reaction volume per well comprised 20 μL of ligand/buffer, 20 μL of SPA beads, 20 μl of membrane and the assay was initiated by the addition of 20 μL of ^125I-C5a. The plate was then sealed using TopSeal-A (Perkin Elmer) sealing film and incubated with shaking for 1 h at room temperature. Radioligand binding was then assessed for 30 s/well using a 1450 Microbeta scintillation counter (Perkin Elmer).

[3] = tested on: LPS stimulated HMDM; test: Cytokine release from LPS stimulated HMDM (ELISA); type: cell-based, human; details: C5a1 antagonist PMX53 10 μM pre-incubated 30 min
Procedure: FIG. 4 is a panel of graphs showing the testing P32 and P59 for effects on cytokine release from LPS stimulated HMDM. Measurement of human inflammatory cytokines IL-6 (4A, 4B), TNFα (4C, 4D) and IL-10 (4E, 4F) release from HMDM, 24 h after co-stimulation with LPS (10 ngml^−1) and C5a (0.1-100 nM), P32 or P59 (0.1-100 μM) with or without C5a1 antagonist PMX53 (10 μM) present. Cytokine release was quantified by ELISA. Data is representative of five independent HMDM donors performed in triplicate (n=5). CTRL represents non-stimulated HMDM. Data is normalised to LPS response (100%) for each donor. Error bars represent SEM. *P<0.05, ** P<0.01, *** P<0.001, **** P<0.0001 by one-way ANOVA followed by Dunnett's post hoc test or Sidak's post hoc test for comparisons+/−PMX53.
Briefly, HMDMs were seeded in 96 well tissue culture plates (Nunc) at 100 000 cells/well and allowed to adhere overnight at 37° C. and 5% CO2. The next day HMDMs were stimulated with E. coli derived LPS (10 ng ml^−1) only or LPS (10 ng ml^−1) and either C5a or C5a2 ligands at various concentrations (1-100 nM (C5a) or 0.1-100 μM (C5a2 ligands)). For testing cytokine release in the presence of C5a1 antagonist (PMX53), cells were pre-incubated with PMX53 at 10 μM for 30 min prior to addition of C5a or C5a2 ligands. Following ligand addition HMDMs were returned to 37° C. and 5% CO2 incubator and 24 h after stimulation supernatant was removed from cells and transferred to 96 well polypropylene microplate (Nunc) and stored at −20° C. till needed for assay. Quantification of cytokine release was performed using ELISA kits (BD OptEIA™) as per manufacturers' instructions (BD Biosciences, San Jose, Calif., USA).

[4] = tested on: LPS stimulated HMDM; details: literature reference 33; cited from earlier work
[5] = target: C5a2 (Homo sapiens, UniProt Q9P296); test: BRET C5a2-β-arrestin 2 recruitment assay in HEK293 cells; type: cell-based; parameters: expressed in transfected cells; host or cells: HEK293 (transient)
Procedure: Assays were performed as a ligand-induced BRET experiment similar to previously described^17, 31, 49. In brief, HEK293 cells were transiently transfected with either C5a1-Rluc8 and β-arrestin 2-Venus or C5a2-Venus and β-arrestin 2-Rluc8 or C5a1-Rluc8 and C5a2-Venus in a 100-mm dish. 24 h after transfection cells were collected and transferred to a 96-well white microplate (Corning, N.Y., USA) in phenol-red free DMEM containing 5% FBS and 25 mM HEPES (Life Technologies). Cells were allowed to settle for 24 h and then were incubated with 30 μM Enduren (Promega, Madison, Wis., USA) for 2 h at 37° C. and 5% CO2 to ensure that the substrate had reached equilibrium. Following incubation BRET baseline measurements were taken for 15 min then ligands were added to plate and BRET measurements were taken for a further 1 h at 37° C. using a POLARstar optima microplate reader (BMG Labtech, Ortenberg, Germany). Filtered light emissions were sequentially measured for 1 s in each of the following windows 460-490 nm and 520-550 nm, both before and following ligand addition. The ligand-induced BRET ratio was calculated by subtracting the ratio of 520-550 nm emission over the 460-490 nm emission for a vehicle-treated sample from a ligand-treated sample of the same aliquot of cells in triplicate. The BRET ratio was calculated by subtracting the ratio of 520-550 nm emission over the 460-490 nm emission for a cell sample containing the C5a1-Rluc8 or β-arrestin 2-Rluc8 construct from a cell sample containing both the C5a1-Rluc8 and β-arrestin 2-Venus or C5a2-Venus and β-arrestin 2-Rluc8 or C5a1-Rluc8 and C5a2-Venus constructs. Peptides were also tested for ligand-induced β-arrestin 2 recruitment at 100 μM using DiscoveRx PathHunter kits for human C5a1 and C5a2 (DiscoveRx Corporation. Birmingham, UK), according to the manufacturer's instructions.

[6] = target: T2, C5a1-C5a2 heteromer (Homo sapiens, UniProt P21730+Q9P296); details: high concentrations of C5a, previously shown; cited from earlier work
T2 construct: expressed in transfected cells; host or cells: HEK293 (transient)
T2 sequence (P21730 whole entry): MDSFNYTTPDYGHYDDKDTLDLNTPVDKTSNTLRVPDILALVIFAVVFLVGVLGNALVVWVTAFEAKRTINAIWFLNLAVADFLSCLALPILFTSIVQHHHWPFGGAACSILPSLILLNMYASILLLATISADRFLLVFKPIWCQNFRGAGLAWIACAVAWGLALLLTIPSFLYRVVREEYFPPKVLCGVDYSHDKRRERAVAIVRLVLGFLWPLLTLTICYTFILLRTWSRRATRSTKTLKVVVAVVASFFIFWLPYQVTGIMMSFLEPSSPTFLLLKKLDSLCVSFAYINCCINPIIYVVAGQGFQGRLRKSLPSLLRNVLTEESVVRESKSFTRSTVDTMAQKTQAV
T2 sequence (Q9P296 whole entry): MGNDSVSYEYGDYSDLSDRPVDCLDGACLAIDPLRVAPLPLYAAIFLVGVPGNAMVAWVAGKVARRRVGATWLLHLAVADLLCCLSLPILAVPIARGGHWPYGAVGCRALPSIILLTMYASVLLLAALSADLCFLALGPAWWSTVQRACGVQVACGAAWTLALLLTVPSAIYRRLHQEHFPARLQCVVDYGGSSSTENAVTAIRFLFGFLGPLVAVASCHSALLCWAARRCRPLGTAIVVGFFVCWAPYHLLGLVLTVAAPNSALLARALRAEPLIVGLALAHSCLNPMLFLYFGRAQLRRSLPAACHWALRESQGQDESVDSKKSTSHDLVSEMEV

T1 sequence (Q9P296 whole entry): as above
Sequence of C5a2 (Q9P296 whole entry): as above
Sequence of C5a2 (P32121 whole entry partner): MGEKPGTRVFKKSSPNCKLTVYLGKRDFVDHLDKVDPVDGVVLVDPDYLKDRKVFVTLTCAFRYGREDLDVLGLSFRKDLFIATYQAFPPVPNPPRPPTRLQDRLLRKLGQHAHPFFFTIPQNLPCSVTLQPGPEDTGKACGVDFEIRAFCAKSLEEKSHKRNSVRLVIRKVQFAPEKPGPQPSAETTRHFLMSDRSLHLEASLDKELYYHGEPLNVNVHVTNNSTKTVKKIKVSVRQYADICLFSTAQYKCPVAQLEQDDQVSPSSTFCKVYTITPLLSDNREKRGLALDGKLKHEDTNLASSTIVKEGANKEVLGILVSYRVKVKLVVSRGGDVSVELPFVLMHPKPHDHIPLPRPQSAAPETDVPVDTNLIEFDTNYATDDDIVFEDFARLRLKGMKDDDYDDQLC

Molecule: Ac-RHYPYWR-OH [Peptide P32, Ac-RHYPYWR-OH]
- Cmax [1]: ~50 µM

Molecule: C3a-des Arg: human isolated C3a-des Arg/acylation-stimulating protein (ASP), purchased from Merck Biosciences
- displacement of 125I-C5a from Flp-In CHO-C5a2 membrane preparations [2]: do not bind

Molecule: C3a: human isolated complement protein purchased from Merck Biosciences [Peptide C3a]
- displacement of 125I-C5a from Flp-In CHO-C5a2 membrane preparations [2]: do not bind

B1: C5a-des Arg: human isolated complement protein purchased from Merck Biosciences (protein)
chain: TLQKKIEEIAAKYKHSVVKKCCYDGACVNNDETCEQRAARISLGPRCIKAFTECCVVASQLRANISHKDMQLG
- displacement of 125I-C5a from Flp-In CHO-C5a2 membrane preparations [2]: full inhibition

B2: C5a: complement activation peptide; human recombinant C5a purchased from Sino Biologicals (protein)
chain: TLQKKIEEIAAKYKHSVVKKCCYDGACVNNDETCEQRAARISLGPRCIKAFTECCVVASQLRANISHKDMQLGR
- displacement of 125I-C5a from Flp-In CHO-C5a2 membrane preparations [2]: full inhibition
- IL-6 release from LPS stimulated HMDM in the presence of PMX53 [3]: completely blocked
- IL-10 release from LPS stimulated HMDM in the presence of PMX53 [3]: completely blocked
- TNFα release from LPS stimulated HMDM in the presence of PMX53 [3]: completely blocked
- IL-6 release from LPS stimulated HMDMs [4]: dose-dependently inhibits
- IL-10 release from LPS stimulated HMDMs [4]: increasing the release
- TNFα release from LPS stimulated HMDMs [4]: dose-dependently inhibits
- C5a2-β-arrestin 2 BRET Recruitment (% of C5a) [5]: 100 % of C5a
- EC50 ([5]; calculated at ~40 min after ligand addition): 50.3 ± 4.2 nM
- up-regulation of heteromer formation between C5a1-C5a2 [6]: can up-regulate heteromer formation
